Literature values as cited in patent publication US20210100896A1, “METHODS AND COMPOSITIONS FOR STIMULATING THE IMMUNE SYSTEM” (University of Miami, priority 2017, published 2021).

Tested on: tumor
Conditions: tumor bearing mice

B1: Flt3L: cytokine that promotes hematopoietic progenitor commitment to the DC lineage (protein, UniProt P49771 27-235, looked up)
Fms-related tyrosine kinase 3 …: TQDCSFQHSPISSDFAVKIRELSDYLLQDYPVTVASNLQDEELCGGLWRLVLAQRWMERLKTVAGSKMQGLLERVNTEIHFVTKCAFQPPPSCLRFVQTNISRLLQETSEQLVALKPWITRQNFSRCLELQCQPDSSTLPPPWSPRPLEATAPTAPQPPLLLLLLLPVGLLLLAAAWCLHWQRTRRRTPRPGEQVPPVPSPQDLLLVEH
intratumoral accumulation of DC and tumor inhibition: enhanced intratumoral accumulation of DC and tumor inhibition
